Our source for the Kd values is publication PMC6548965, “Aptameric Probe Specifically Binding Protein Heterodimer Rather Than Monomers”.

In the series the target is IAP-PLAP alkaline phosphatase heterodimer (Homo sapiens (Human), UniProt P09923;P05187 20-503;23-506, GPI-anchored, glycosylated). In words: flow; LoVo cells, binding buffer, 4 C. Particulars: copies: 1;1; label: FITC or AF647.
Sequence of IAP-PLAP alkaline phosphatase heterodimer (P09923 20-503, chain 1 of 2): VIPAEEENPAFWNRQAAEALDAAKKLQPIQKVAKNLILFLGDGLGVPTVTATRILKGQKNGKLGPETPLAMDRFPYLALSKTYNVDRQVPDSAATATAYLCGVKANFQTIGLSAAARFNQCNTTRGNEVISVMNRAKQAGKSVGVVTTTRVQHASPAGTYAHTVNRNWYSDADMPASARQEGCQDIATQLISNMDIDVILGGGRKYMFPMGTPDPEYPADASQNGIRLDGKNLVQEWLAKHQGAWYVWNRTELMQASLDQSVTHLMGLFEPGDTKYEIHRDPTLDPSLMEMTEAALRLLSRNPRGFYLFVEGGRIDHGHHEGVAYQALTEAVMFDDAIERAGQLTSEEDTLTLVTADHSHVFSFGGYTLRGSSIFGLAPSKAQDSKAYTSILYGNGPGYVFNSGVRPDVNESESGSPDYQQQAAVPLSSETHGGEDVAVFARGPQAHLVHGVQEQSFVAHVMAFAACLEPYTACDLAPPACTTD
Sequence of IAP-PLAP alkaline phosphatase heterodimer (P05187 23-506, chain 2 of 2): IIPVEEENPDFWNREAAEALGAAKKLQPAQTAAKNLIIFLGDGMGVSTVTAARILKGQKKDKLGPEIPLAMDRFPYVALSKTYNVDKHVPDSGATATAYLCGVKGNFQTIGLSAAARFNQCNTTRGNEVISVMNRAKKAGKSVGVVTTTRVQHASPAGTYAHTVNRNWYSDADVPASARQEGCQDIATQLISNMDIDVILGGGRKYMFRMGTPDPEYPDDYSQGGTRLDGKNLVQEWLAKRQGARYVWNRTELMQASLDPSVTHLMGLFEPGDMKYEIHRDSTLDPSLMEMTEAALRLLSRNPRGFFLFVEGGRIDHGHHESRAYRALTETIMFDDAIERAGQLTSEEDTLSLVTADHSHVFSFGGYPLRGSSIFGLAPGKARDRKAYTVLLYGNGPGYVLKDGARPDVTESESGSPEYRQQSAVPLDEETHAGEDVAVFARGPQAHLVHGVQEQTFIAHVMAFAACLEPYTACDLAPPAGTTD

B1: BG2c (ssDNA)
DNA: TAGGGGTCGGTGTGGGTGGTTATGATTGGC
As a reminder, the Kd is the concentration at which binding is half-saturated. Consider B1, for which binding was put at a Kd of 9.3 ± 1.6 nM.

B2: BG4 (ssDNA)
DNA: TAAAAAATAGGGGTCGGTGTGGGTGGTTATGATTGGCTTTTTTA
Turning to B2, the Kd came to 11.5 ± 2.3 nM.
